# Assays:
# [1] = target: some of the FcγR expressing cell lines; test: flow cytometry on CHO cells stably expressing FcγR, anti-human IgG secondary (FIG. 30B)
# human CD137 on cells [2] = target: T1, human CD137 on cells (human, UniProt Q07011 24-255); test: cell-based or functional assay
# human CD137 on cells [3] = target: T1, human CD137 on cells; test: cell-based or functional assay; remark: listed apart in the source
# human CD137 on cells [4] = target: T1, human CD137 on cells; test: flow cytometry, CD8 T cells gated from CD3-stimulated human PBMC, exp 1, n=3 donors
# Method: (§1) FACS staining and analysis of CD8 T cells: Following 48 h of incubation with or without CD3, human and cynomolgus PBMC were harvested, pooled, recounted and diluted in FACS buffer (PBS +0.5% BSA, 0.05% NaN₃) to a concentration of 5×10⁶ cells/mL. 50 μL (0.25×10⁶ cells) of cell solution was added to a 96-well FACS staining plate (Falcon #351190). Following 10 min of Fc-blocking in RT using Beriglobin (hIgG, 200 μg/mL), cells were washed in FACS buffer and then incubated for 1 h in 4° C. with 100 μL of the biotinylated ALG.APV-210 or negative control. The antibodies were added in a serial dilution starting either at 5 μg/mL titrating down in a 12 step 1/3 dilution down to 0.0003 μg/mL (exp 1) or 1 μg/mL titrating down in a 12 step 1/2 dilution down to 0.0005 μg/mL (exp 2). […] Cells were analysed for ALG.APV-210 binding using flow cytometry by gating on viable, single cells expressing CD3 and CD8. MFI values (FMO subtracted) from 2 independent experiments as well as normalized pooled data from 2 experiments and EC₅₀-values were determined and plotted using GraphPad Prism 7, non-linear regression log (agonist) vs. normalized response—variable slope, n=6 donors/group.
# human CD137 on cells [5] = target: T1, human CD137 on cells; test: flow cytometry, CD8 T cells gated from CD3-stimulated human PBMC, exp 2, n=3 donors
# Method: as §1
# [6] = target: T2, cynomolgus CD137 on cells (cynomolgus macaque, UniProt A9YYE7 24-254); test: flow cytometry, CD8 T cells gated from CD3-stimulated cynomolgus PBMC, exp 1, n=3 donors
# T2 construct: whole, on cells; also called cynomolgus macaque CD137; cynomolgus 4-1BB
# Method: (§2) Isolation and stimulation of cynomolgus PBMC: Cynomolgus PBMC were isolated from 20 mL of cynomolgus monkey blood from 3 different donors, obtained from Silabe, France by density gradient centrifugation using Lympholyte-mammal (Cedarlane labs) according to manufacturer's instructions. Non-tissue treated 96 well plates were pre-coated overnight at 4° C. with 3 μg/mL α-monkey CD3, clone FN-18 (Invitrogen #APS0301). The cynomolgus PBMC were then stimulated identically as the human PBMC described above
# (§3) FACS staining and analysis of CD8 T cells: Following 48 h of incubation with or without CD3, human and cynomolgus PBMC were harvested, pooled, recounted and diluted in FACS buffer (PBS +0.5% BSA, 0.05% NaN₃) to a concentration of 5×10⁶ cells/mL. 50 μL (0.25×10⁶ cells) of cell solution was added to a 96-well FACS staining plate (Falcon #351190). […] Cells were analysed for ALG.APV-210 binding using flow cytometry by gating on viable, single cells expressing CD3 and CD8. MFI values (FMO subtracted) from 2 independent experiments as well as normalized pooled data from 2 experiments and EC₅₀-values were determined and plotted using GraphPad Prism 7, non-linear regression log (agonist) vs. normalized response—variable slope, n=6 donors/group.
# [7] = target: T2, cynomolgus CD137 on cells; test: flow cytometry, CD8 T cells gated from CD3-stimulated cynomolgus PBMC, exp 2, n=3 donors
# Method: as §2, §3
# human CD137 on cells [8] = target: T1, human CD137 on cells; test: flow cytometry, % positive cells of CD8 T cells gated from CD3-stimulated human PBMC, exp 1, n=3 donors
# Method: as §1
# [9] = target: T2, cynomolgus CD137 on cells; test: flow cytometry, % positive cells of CD8 T cells gated from CD3-stimulated cynomolgus PBMC, exp 1, n=3 donors
# Method: as §2, §3
# human CD137 on cells [10] = target: T1, human CD137 on cells; test: flow cytometry, normalized % positive cells of CD8 T cells from CD3-stimulated human PBMC, pooled data of 2 exp, n=6 donors
# Method: as §1
# T1 sequence (Q07011 24-255 limits assumed): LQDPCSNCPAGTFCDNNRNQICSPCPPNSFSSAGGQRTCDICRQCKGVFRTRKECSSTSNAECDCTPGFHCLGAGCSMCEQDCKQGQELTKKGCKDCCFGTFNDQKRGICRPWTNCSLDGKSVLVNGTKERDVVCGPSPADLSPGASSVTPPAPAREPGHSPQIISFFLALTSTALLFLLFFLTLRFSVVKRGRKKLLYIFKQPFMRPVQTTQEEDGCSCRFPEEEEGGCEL
# T2 sequence (A9YYE7 entry or part of it): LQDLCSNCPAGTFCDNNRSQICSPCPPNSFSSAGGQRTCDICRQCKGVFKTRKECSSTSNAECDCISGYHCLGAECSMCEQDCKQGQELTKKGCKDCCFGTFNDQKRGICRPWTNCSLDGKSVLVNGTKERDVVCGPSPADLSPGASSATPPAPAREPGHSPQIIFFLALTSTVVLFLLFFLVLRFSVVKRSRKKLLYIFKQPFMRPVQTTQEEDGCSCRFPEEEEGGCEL
molecule,measurement,setting,value
control human IgG1 molecule (antibody),concentration at which significant binding was observed,[1],4 nM
ALG.APV-210 (bispecific antibody) EVQLLESGGGLVQPGGSLRLSCAASGFTFSHGSMYWVRQAPGKGLEWVSSISSGSGSTYYADSVKGRFTISHDNSKNTLYLQMNSLRAEDTAVYYCARSSYYGSYYSIDYWGQGTLVTVSSGGGGSGGGGSGGGGSGGGGSDIQMTQSPSSLSASVGDRVTITCRASQSISSYLNWYQQKPGKAPKLLIYAASSLQSGVPSRFSGSGSGTDFTLTISSLQPEDFATYYCQQYYDNLPTFGQGTKLEIKEPKSSDKTHTCPPCPAPEAAGAPSVFLFPPKPKDTLMISRTPEVTCVVVDVSHEDPEVKFNWYVDGVEVHNAKTKPREEQYNSTYRVVSVLTVLHQDWLNGKEYKCAVSNKALPAPIEKTISKAKGQPREPQVYTLPPSRDELTKNQVSLTCLVKGFYPSDIAVEWESNGQPENNYKTTPPVLDSDGSFFLYSKLTVDKSRWQQGNVFSCSVMHEALHNHYTQKSLSLSPGSGGGGSGGGGSGGGGSPSEVQLLESGGGLVQPGGSLRLSCAASGFTFSSYAMSWVRQAPGKCLEWVSAISGSGGSTYYADSVKGRFTISRDNSKNTLYLQMNSLRAEDTAVYYCARYYGGYYSAWMDYWGQGTLVTVSSGGGGSGGGGSGGGGSGGGGSDIQMTQSPSSLSASVGDRVTITCRASQSISSFLNWYQQKPGKAPKLLIYAASSLQSGVPSRFSGSGSGTDFTLTISSLQPEDSATYYCQQTYGYLHTFGCGTKLEIKR,maximal IFNγ release with CT26-h5T4^low cells relative to CT26-h5T4^high cells,human CD137 on cells [2],82%
same,maximal IFNγ release with CT26-wt cells relative to CT26-h5T4^high cells,human CD137 on cells [2],7%
same,"EC50 (nM), IFNγ release of human CD8 T cells with CT26-h5T4^high cells",human CD137 on cells [3],0.41 nM
same,"EC50 (nM), IFNγ release of human CD8 T cells with CT26-h5T4^low cells",human CD137 on cells [3],0.24 nM
"biotinylated ALG.APV-210 (bispecific antibody, biotinylated (sites not given), also called ALG.APV-210 (biotinylated for FACS detection)) EVQLLESGGGLVQPGGSLRLSCAASGFTFSHGSMYWVRQAPGKGLEWVSSISSGSGSTYYADSVKGRFTISHDNSKNTLYLQMNSLRAEDTAVYYCARSSYYGSYYSIDYWGQGTLVTVSSGGGGSGGGGSGGGGSGGGGSDIQMTQSPSSLSASVGDRVTITCRASQSISSYLNWYQQKPGKAPKLLIYAASSLQSGVPSRFSGSGSGTDFTLTISSLQPEDFATYYCQQYYDNLPTFGQGTKLEIKEPKSSDKTHTCPPCPAPEAAGAPSVFLFPPKPKDTLMISRTPEVTCVVVDVSHEDPEVKFNWYVDGVEVHNAKTKPREEQYNSTYRVVSVLTVLHQDWLNGKEYKCAVSNKALPAPIEKTISKAKGQPREPQVYTLPPSRDELTKNQVSLTCLVKGFYPSDIAVEWESNGQPENNYKTTPPVLDSDGSFFLYSKLTVDKSRWQQGNVFSCSVMHEALHNHYTQKSLSLSPGSGGGGSGGGGSGGGGSPSEVQLLESGGGLVQPGGSLRLSCAASGFTFSSYAMSWVRQAPGKCLEWVSAISGSGGSTYYADSVKGRFTISRDNSKNTLYLQMNSLRAEDTAVYYCARYYGGYYSAWMDYWGQGTLVTVSSGGGGSGGGGSGGGGSGGGGSDIQMTQSPSSLSASVGDRVTITCRASQSISSFLNWYQQKPGKAPKLLIYAASSLQSGVPSRFSGSGSGTDFTLTISSLQPEDSATYYCQQTYGYLHTFGCGTKLEIKR",EC50 (read off the curve),human CD137 on cells [4],~300 pM
same,EC50 (read off the curve),human CD137 on cells [5],~200 pM
same,EC50 (read off the curve),[6],~300 pM
same,EC50 (read off the curve),[7],~200 pM
same,EC50 (read off the curve),human CD137 on cells [8],~30 pM
same,EC50 (read off the curve),[9],~20 pM
same,EC50,human CD137 on cells [10],27 pM

# — US20200223933A1 (APTEVO RESERCH AND DEVELOPMENT, published 2020)
